According to patent publication US20140348829A1 (CYTODYN, published 2014):

Columns and labels:
[1] = molecular target: feline LFA-1 (CD11a/CD18 heterodimer) (feline); test: cell binding assay on feline MCH-4 cells, purified antibody
[2] = molecular target: feline LFA-1 (CD11a/CD18 heterodimer) (feline); test: cell binding assay on feline MCH-4 cells, CHO supernatant, HRP anti-feline IgG
[3] = molecular target: feline LFA-1 (CD11a/CD18 heterodimer) (feline); test: cell binding assay on feline MCH-4 cells, CHO supernatant; against chimeric #1
[4] = molecular target: feline LFA-1 (CD11a/CD18 heterodimer) (feline); test: cell binding assay on feline MCH-4 cells, purified antibody; against chimeric #1
[5] = molecular target: feline LFA-1 (CD11a/CD18 heterodimer) (feline, UniProt A0ABI8A8D3 24-1171; A0ABI7ZVN3 67-787); test: cell binding assay on feline MCH-4 cells, CHO supernatant, HRP anti-feline IgG

B1: Felinized HC 3+Felinized LC 2 (#15) antibody: 7301 (Felinized HC 3) + 7303 (Felinized LC 2) (antibody, IgG1)
heavy: QVQLVQSGAEVRKPGASVKIFCKASGYTFTSYYIHWLRQTPEQGREWIGWIYVGDGNTRYNEKFQGRLTLTADKSTSTAYMELSSLRSADTAIYFCARGGNGYFDYWGQDTLVTVSSDIVMTQTPLSLSVTPGEPASISCRASQDVSTALNWYLQKPGQSPRLLIYWASNRHSGVPDRFSGSGSGTDYTLRISRVEADDVGVYYCQQHYSSSLTFGPGTKLEI
light: QVQLVQSGAEVRTPGASVKIFCKASGYTFTSYYIHWVRQSPAQGREWMGWIYVGDGNTKYNERFQGRLTLTADKSTSTAYMELSSLRSADTAMYFCARGGNGYFDYWGQGALVTVSSDIVMTQTPLSLSVTPGEPASISCRASQDVSTALNWYLQKPGQSPRLLIYWASNRHSGVPDRFSGSGSGTDYTLRISRVEADDVGVYYCQQHYSSSLTFGPGTKLEI
Work on B1 yielded an OD450 at 0.1 ug [1] of 0.86 OD450, an OD450 at 1 ug [1] of 1.29 OD450 and a Relative antigen binding (normalized to parental antibody) (relative to parental) [2] of 0.3. It also gave a fold less affinity than the chimeric [3] of 3 fold and an Average fold change over chimeric [4] of 0.76 fold.

B2: antibody #10: 7300 (Felinized HC 2) + 7302 (Felinized LC 1) (antibody)
heavy: QVQLVQSGAEVRKPGASVKIFCKASGYTFTSYYIHWLRQTPEQGLEWMGWIYVGDGNTRYNQKFQGRLTLTADKSTSTAYMELSSLRSADTAIYFCARGGNGYFDYWGQDTLVTVSSDIVMTQTPLSLSVTPGEPASISCRASQDVSTALNWYLQKPGQSPRLLIYWASNRHSGVPDRFSGSGSGTDYTLRISRVEADDVGVYYCQQHYSSSLTFGPGTKLEI
light: QVQLVQSGAEVRKPGASVKIFCKASGYTFTSYYIHWLRQTPEQGREWIGWIYVGDGNTRYNEKFQGRLTLTADKSTSTAYMELSSLRSADTAIYFCARGGNGYFDYWGQDTLVTVSSDIVMTQTPLSLSVTPGEPASISCRASQDVSTALNWYLQKPGQSPRLLIYWASNRHSGVPDRFSGSGSGTDYTLRISRVEADDVGVYYCQQHYSSSLTFGPGTKLEI
In the case of B2, the Relative antigen binding (normalized to parental antibody) (relative to parental) [2] is reported as 0.05.

B3: antibody #16: 7301 (Felinized HC 3) + 7304 (Felinized LC 3) (antibody)
heavy: QVQLVQSGAEVRKPGASVKIFCKASGYTFTSYYIHWLRQTPEQGREWIGWIYVGDGNTRYNEKFQGRLTLTADKSTSTAYMELSSLRSADTAIYFCARGGNGYFDYWGQDTLVTVSSDIVMTQTPLSLSVTPGEPASISCRASQDVSTALNWYLQKPGQSPRLLIYWASNRHSGVPDRFSGSGSGTDYTLRISRVEADDVGVYYCQQHYSSSLTFGPGTKLEI
light: QVQLVQSGAEVRTPGASVKIFCKASGYTFTSYYIHWVRQSPAQGREWMGWIYVGDGNTKYNERFQGRLTLTADKSTSTAYMELSSLRSADTAMYFCARGGNGYFDYWGQGALVTVSSDIVMTQTPLSLSVTPGEPASISCRASQDVSTALNWYLQKPGQSPRLLIYWASNRHSGVPDRFSGSGSGTDYTLRISRVEADDVGVYYCQQHYSSSLTFGPGTKLEI
B3 showed a Relative antigen binding (normalized to parental antibody) (relative to parental) [2] of 0.05.

B4: antibody #6: 7299 (Felinized HC 1) + 7302 (Felinized LC 1) (antibody, IgG1)
heavy: QVQLVQSGAEVRKPGASVKIFCKASGYTFTSYYIHWLRQTPEQGLEWMGWIYVGDGNTRYNQKFQGRLTLTADKSTSTAYMELSSLRSADTAIYFCARGGNGYFDYWGQDTLVTVSSDIVMTQTPLSLSVTPGEPASISCRASQDVSTALNWYLQKPGQSPRLLIYWASNRHSGVPDRFSGSGSGTDYTLRISRVEADDVGVYYCQQHYSSSLTFGPGTKLEI
light: QVQLVQSGAEVRKPGASVKIFCKASGYTFTSYYIHWLRQTPEQGREWIGWIYVGDGNTRYNEKFQGRLTLTADKSTSTAYMELSSLRSADTAIYFCARGGNGYFDYWGQDTLVTVSSDIVMTQTPLSLSVTPGEPASISCRASQDVSTALNWYLQKPGQSPRLLIYWASNRHSGVPDRFSGSGSGTDYTLRISRVEADDVGVYYCQQHYSSSLTFGPGTKLEI
Work on B4 yielded a Relative antigen binding (normalized to parental antibody) (relative to parental) [2] of 0.05.

B5: antibody #14: 7301 (Felinized HC 3) + 7302 (Felinized LC 1) (antibody, IgG1)
heavy: QVQLVQSGAEVRKPGASVKIFCKASGYTFTSYYIHWLRQTPEQGREWIGWIYVGDGNTRYNEKFQGRLTLTADKSTSTAYMELSSLRSADTAIYFCARGGNGYFDYWGQDTLVTVSSDIVMTQTPLSLSVTPGEPASISCRASQDVSTALNWYLQKPGQSPRLLIYWASNRHSGVPDRFSGSGSGTDYTLRISRVEADDVGVYYCQQHYSSSLTFGPGTKLEI
light: QVQLVQSGAEVRKPGASVKIFCKASGYTFTSYYIHWLRQTPEQGREWIGWIYVGDGNTRYNEKFQGRLTLTADKSTSTAYMELSSLRSADTAIYFCARGGNGYFDYWGQDTLVTVSSDIVMTQTPLSLSVTPGEPASISCRASQDVSTALNWYLQKPGQSPRLLIYWASNRHSGVPDRFSGSGSGTDYTLRISRVEADDVGVYYCQQHYSSSLTFGPGTKLEI
notes: Fully felinized, feline IgG1/kappa; tested as CHO supernatant
For B5, the “Relative antigen binding (normalized to parental antibody)” value [5] was 0.06 relative to parental.
